Test [1] addresses T1, TriTAC CD3 high aff. - C324.
T1 construct: Trispecific single chain: anti-PSMA sdAb, anti-HSA sdAb, anti-CD3 scFv, 6xHis (the tag is part of the entry); also called PSMA TriTAC CD3 high aff; C00324
Nature of the test: BLI (Octet), cynomolgus albumin (CSA). In general terms: BLI is a label-free optical method that tracks binding on a fibre tip over time.

Test [2] addresses T2, Tool TriTAC high aff. - C236.
T2 construct: Trispecific single chain: anti-PSMA sdAb, anti-HSA sdAb, anti-CD3 scFv, 6xHis (the tag is part of the entry); also called Tool PSMA TriTAC; C00236
Nature of the test: BLI (Octet), cynomolgus albumin (CSA).

The target of test [3] is T3, PSMA-TriTAC (p8)-C362.
T3 construct: Trispecific single chain: anti-PSMA sdAb, anti-HSA sdAb, anti-CD3 scFv, 6xHis (the tag is part of the entry); also called PSMA p8 TriTAC C362; C00362
T3 sequence (chain, as listed by the source): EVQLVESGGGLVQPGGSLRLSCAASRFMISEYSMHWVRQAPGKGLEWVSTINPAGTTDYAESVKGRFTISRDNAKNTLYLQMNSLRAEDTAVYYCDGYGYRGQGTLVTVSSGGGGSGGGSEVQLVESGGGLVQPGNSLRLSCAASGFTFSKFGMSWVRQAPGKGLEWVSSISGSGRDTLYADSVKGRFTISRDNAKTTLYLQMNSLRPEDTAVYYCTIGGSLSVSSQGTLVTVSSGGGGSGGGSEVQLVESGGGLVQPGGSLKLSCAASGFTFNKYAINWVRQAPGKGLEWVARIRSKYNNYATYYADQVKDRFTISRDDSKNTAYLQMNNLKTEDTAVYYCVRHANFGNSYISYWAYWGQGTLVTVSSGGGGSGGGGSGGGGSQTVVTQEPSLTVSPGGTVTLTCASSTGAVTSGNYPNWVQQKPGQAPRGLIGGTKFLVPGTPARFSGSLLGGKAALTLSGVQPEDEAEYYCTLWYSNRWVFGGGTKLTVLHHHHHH
Nature of the test: BLI (Octet), cynomolgus albumin (CSA).

For test [4], the target named is T4, PSMA TriTAC (HDS)-C363.
T4 construct: Trispecific single chain: anti-PSMA sdAb, anti-HSA sdAb, anti-CD3 scFv, 6xHis (the tag is part of the entry); also called PSMA HDS TriTAC C363; C00363
Nature of the test: BLI (Octet), cynomolgus albumin (CSA).

Test [5] concerns the target T5, PSMA TriTAC (HTS)-C364.
T5 construct: Trispecific single chain: anti-PSMA sdAb, anti-HSA sdAb, anti-CD3 scFv, 6xHis (the tag is part of the entry); also called PSMA HTS TriTAC C364; C00364
Nature of the test: BLI (Octet), cynomolgus albumin (CSA).

Test [6] deals with T3, PSMA-TriTAC (p8)-C362. Nature of the test: BLI (Octet), cynomolgus CD3.
Test [7] deals with T4, PSMA TriTAC (HDS)-C363. Nature of the test: BLI (Octet), cynomolgus CD3.
Test [8] addresses T5, PSMA TriTAC (HTS)-C364. Nature of the test: BLI (Octet), cynomolgus CD3.
Test [9] deals with T1, TriTAC CD3 high aff. - C324. Nature of the test: BLI (Octet), cynomolgus CD3.
The target in test [10] is T2, Tool TriTAC high aff. - C236. Nature of the test: BLI (Octet), cynomolgus CD3.
Test [11] concerns the target T3, PSMA-TriTAC (p8)-C362. Nature of the test: BLI (Octet), human CD3-Flag-Fc on anti-human IgG Fc biosensors.
For test [12], the target named is T4, PSMA TriTAC (HDS)-C363. The description is as above.
Test [13] has as its target T5, PSMA TriTAC (HTS)-C364. Described as above.
The target of test [14] is T1, TriTAC CD3 high aff. - C324. The description is as above.
Test [15] has as its target T4, PSMA TriTAC (HDS)-C363. Nature of the test: BLI (Octet), cynomolgus PSMA.
Test [16] concerns the target T5, PSMA TriTAC (HTS)-C364. Nature of the test: BLI (Octet), cynomolgus PSMA.
Test [17] concerns the target T6, hFc · flag · hPSMA (human, UniProt Q04609 44-750).
T6 construct: The order of the parts follows the printed label; also called human PSMA; h PSMA-Fc; not shown: human Fc (hFc); flag tag
Nature of the test: BLI (OCTET), expression supernatants, hFc.flag.hPSMA. The text has this:
Supernatants were used to estimate Kd, kon, and koff (or kdis) to human and cynomolgus PSMA using the OCTET® system. […] The parental sdAb is listed as Anti-PSMA wt sdAb.6his in Table 1.

Substitutions are numbered along the chain they refer to. Names may count otherwise.

T6 sequence (Q04609 44-750 limits assumed): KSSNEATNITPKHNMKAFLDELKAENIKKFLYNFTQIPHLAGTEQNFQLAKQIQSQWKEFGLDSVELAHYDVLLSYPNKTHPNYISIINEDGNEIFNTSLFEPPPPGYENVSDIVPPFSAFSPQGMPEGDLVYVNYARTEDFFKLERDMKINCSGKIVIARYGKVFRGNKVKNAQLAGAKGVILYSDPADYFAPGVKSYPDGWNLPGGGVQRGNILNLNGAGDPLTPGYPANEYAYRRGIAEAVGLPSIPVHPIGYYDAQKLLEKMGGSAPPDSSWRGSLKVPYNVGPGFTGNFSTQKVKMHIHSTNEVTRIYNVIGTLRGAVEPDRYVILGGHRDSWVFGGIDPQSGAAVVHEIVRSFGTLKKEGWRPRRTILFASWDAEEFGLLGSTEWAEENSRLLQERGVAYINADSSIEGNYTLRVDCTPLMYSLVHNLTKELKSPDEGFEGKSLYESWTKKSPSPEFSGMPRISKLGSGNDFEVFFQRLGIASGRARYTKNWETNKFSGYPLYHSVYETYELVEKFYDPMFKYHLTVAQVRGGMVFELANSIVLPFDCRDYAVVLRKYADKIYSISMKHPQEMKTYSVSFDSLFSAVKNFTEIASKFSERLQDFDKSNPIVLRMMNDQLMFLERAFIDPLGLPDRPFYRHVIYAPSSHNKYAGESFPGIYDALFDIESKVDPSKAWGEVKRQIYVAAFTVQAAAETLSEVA

B1: CSA (other, cynomolgus, UniProt A2V9Z4 25-608, looked up)
chain: DTHKSEVAHRFKDLGEEHFKGLVLVAFSQYLQQCPFEEHVKLVNEVTEFAKTCVADESAENCDKSLHTLFGDKLCTVATLRETYGEMADCCAKQEPERNECFLQHKDDNPNLPPLVRPEVDVMCTAFHDNEATFLKKYLYEVARRHPYFYAPELLFFAARYKAAFAECCQAADKAACLLPKLDELRDEGKASSAKQRLKCASLQKFGDRAFKAWAVARLSQKFPKAEFAEVSKLVTDLTKVHTECCHGDLLECADDRADLAKYMCENQDSISSKLKECCDKPLLEKSHCLAEVENDEMPADLPSLAADYVESKDVCKNYAEAKDVFLGMFLYEYARRHPDYSVMLLLRLAKAYEATLEKCCAAADPHECYAKVFDEFQPLVEEPQNLVKQNCELFEQLGEYKFQNALLVRYTKKVPQVSTPTLVEVSRNLGKVGAKCCKLPEAKRMPCAEDYLSVVLNRLCVLHEKTPVSEKVTKCCTESLVNRRPCFSALELDEAYVPKAFNAETFTFHADMCTLSEKEKQVKKQTALVELVKHKPKATKEQLKGVMDNFAAFVEKCCKADDKEACFAEEGPKFVAASQAALA
notes: also called cynomolgus serum albumin
On to B1, for which the Kd (in general, the equilibrium constant for the complex coming apart) was 9.7 nM in test [1]; 25.4 nM in [2]; 6.6 nM in [3]; 8.4 nM in [4]; 8.6 nM in [5].

B2: cynomolgus CD3 (receptor, UniProt Q95LI5 22-117, looked up)
chain: QDGNEEMGSITQTPYQVSISGTTVILTCSQHLGSEAQWQHNGKNKEDSGDRLFLPEFSEMEQSGYYVCYPRGSNPEDASHHLYLKARVCENCMEMD
notes: The methods describe only the human CD3-Flag-Fc format; also called cyno CD3e
With B2, the Kd was 4.3 nM in test [6]; 5.2 nM in test [7]; 3.8 nM in test [8]; 5.8 nM in test [9]; 4.7 nM in test [10].

B3: human CD3-Flag-Fc protein (Fc fusion, UniProt P07766 23-126, looked up)
chain: DGNEEMGGITQTPYKVSISGTTVILTCPQYPGSEILWQHNDKNIGGDEDDKNIGSDEDHLSLKEFSELEQSGYYVCYPRGSKPEDANFYLYLRARVCENCMEMD
notes: also called CD3e; not shown: Flag tag
Turning to B3, the Kd in [11] amounted to 8.3 nM; in test [12], 8 nM; in test [13] it was 7.7 nM; in test [14], 7.4 nM.

B4: cynomolgus PSMA (other)
chain: KSSSEATNITPKHNMKAFLDELKAENIKKFLHNFTQIPHLAGTEQNFQLAKQIQSQWKEFGLDSVELTHYDVLLSYPNKTHPNYISIINEDGNEIFNTSLFEPPPAGYENVSDIVPPFSAFSPQGMPEGDLVYVNYARTEDFFKLERDMKINCSGKIVIARYGKVFRGNKVKNAQLAGATGVILYSDPADYFAPGVKSYPDGWNLPGGGVQRGNILNLNGAGDPLTPGYPANEYAYRRGIAEAVGLPSIPVHPIGYYDAQKLLEKMGGSASPDSSWRGSLKVPYNVGPGFTGNFSTQKVKMHIHSTSEVTRIYNVIGTLRGAVEPDRYVILGGHRDSWVFGGIDPQSGAAVVHEIVRSFGTLKKEGWRPRRTILFASWDAEEFGLLGSTEWAEENSRLLQERGVAYINADSSIEGNYTLRVDCTPLMYSLVYNLTKELESPDEGFEGKSLYESWTKKSPSPEFSGMPRISKLGSGNDFEVFFQRLGIASGRARYTKNWETNKFSSYPLYHSVYETYELVEKFYDPMFKYHLTVAQVRGGMVFELANSVVLPFDCRDYAVVLRKYADKIYNISMKHPQEMKTYSVSFDSLFSAVKNFTEIASKFSERLRDFDKSNPILLRMMNDQLMFLERAFIDPLGLPDRPFYRHVIYAPSSHNKYAGESFPGIYDALFDIESKVDPSQAWGEVKRQISIATFTVQAAAETLSEVA
notes: the methods describe only the human PSMA-Fc format; also called cyno PSMA
Consider B4, for which the Kd amounted to 540 nM in test [15] and 663 nM in [16].

B5: Anti-PSMA wt sdAb.6his (VHH)
VHH: EVQLVESGGGLVQPGGSLTLSCAASRFMISEYSMHWVRQAPGKGLEWVSTINPAGTTDYAESVKGRFTISRDNAKNTLYLQMNSLKPEDTAVYYCDGYGYRGQGTQVTVSS
notes: Tested as supernatant of Expi293 cells; also called parental sdAb; parental anti-PSMA single domain antibody
For B5, in test [17], the Kd turned out to be 15 nM, the koff (commonly the rate constant with which the complex falls apart) came to 0.0132 s⁻¹ and the kon (usually the rate constant with which the complex forms) was 877000 M⁻¹ s⁻¹.

B6: anti-PSMA T56Q sdAb.6his (VHH)
VHH: B5 VHH with T56Q
In test [17], B6 came in with a Kd of 5.6 nM, a koff of 0.00461 s⁻¹ and a kon of 822000 M⁻¹ s⁻¹.

B7: anti-PSMA E31P sdAb.6his (VHH)
VHH: B5 VHH with E31P
Turning to B7, in test [17], the Kd amounted to 9.5 nM, the koff amounted to 0.00366 s⁻¹ and the kon turned out to be 383000 M⁻¹ s⁻¹.

B8: anti-PSMA S33H T50D G97SsdAb.6his (VHH)
VHH: B5 VHH with S33H, T50D, G97S
In test [17], B8 had a Kd of 6.7 nM, a koff of 0.00538 s⁻¹ and a kon of 800000 M⁻¹ s⁻¹.

B9: anti-PSMA S33H G97SsdAb.6his (VHH)
VHH: B5 VHH with S33H, G97S
In [17], B9 registered a Kd of 0.21 nM, a koff of 0.000197 s⁻¹ and a kon of 936000 M⁻¹ s⁻¹.

B10: anti-PSMA G55K sdAb.6his (VHH)
VHH: B5 VHH with G55K
Regarding B10, in [17], the affinity, expressed as Kd, was 4.5 nM; the koff came out at 0.00248 s⁻¹; the kon came to 556000 M⁻¹ s⁻¹.

For the origin of these results see US20180161428A1 (HARPOON THERAPEUTICS, published 2018).
